Results reported in publication PMC11045720, “Denaturing mass photometry for rapid optimization of chemical protein-protein cross-linking reactions” (Nature Communications, 2024).

Target: the molecule itself
Assay: cross-linking; formaldehyde 0.05% to 1% (vol/vol) on 1 mg/mL protein, 20 min at room temperature; read by denaturing mass photometry

B1: L-Glutamate dehydrogenase from bovine liver (enzyme)
chain: not shown
notes: L-Glutamate dehydrogenase from bovine liver (Sigma); also called GLDH; source: bought: Sigma (from bovine liver)
  stoichiometry N: 6
